Reference: patent US20240352110A1 (ROCHE DIAGNOSTICS OPERATIONS, published 2024)

Target: T1, Aβ42 (human, UniProt P05067 672-713)
T1 construct: range 672-713; In the Elecsys experiments it is the native Aβ42 of the plasma sample; also called Ab42; Abeta42
Experiment: SPR (Biacore 8K+), antibody captured, Aβ42 injected, 37° C., Langmuir 1:1 fit
Procedure: Measurements were performed using the BIAcore™ 8K+ instruments. Aβ-42 concentration series ranging from 1.2 nM to 900 nM were injected at […]. The association phase was monitored for 3 min, the dissociation phase between 5 min to 10 min at 37° C.
The measurements were performed using PBS-DT+, pH7.4 (10 mM phosphate buffer, 2.7 mM KCl, 137 mM NaCl. 5% DMSO, 0.05% Tween 20) as running buffer.
The kinetic rate constants and the dissociation equilibrium constants KD were calculated using a Langmuir 1:1 fit model according Scrubber Version 2.0.c.

T1 sequence (P05067 672-713 limits assumed, form in doubt): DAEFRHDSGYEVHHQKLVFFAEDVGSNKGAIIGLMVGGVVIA

- Kd: 6.7 nM
- MR (molar ratio): 0.7
- koff: 0.0253 s⁻¹
- kon: 3.8e+06 M⁻¹ s⁻¹
- t/2 diss (complex half-life): < 1 min
B1: Mouse anti Aβ-42 antibody 3.2.52 (IgG2b), expressed in hybridoma (antibody)
heavy: EVQLQQSGPELVKLGASVRVSCRTSGFTITEYTMHWVKQSHGKSLEWIGGINPITGGSRNNLKFKDKATLTGDKSSSTVYMDLRSLTSEGSTVNYCVRGRTMGPLDYWGQGTTLTVSSAKTTPPSVYPLAPGCGDTTGSSVTLGCLVKGYFPESVTVTWNSGSLSSSVHTFPALLQSGLYTMSSSVTVPSSTWPSQTVTCSVAHPASSTTVDKKLEPSGPISTINPCPPCKECHKCPAPNLEGGPSVFIFPPNIKDVLMISLTPKVTCVVVDVSEDDPDVRISWFVNNVEVHTAQTQTHREDYNSTIRVVSALPIQHQDWMSGKEFKCKVNNKDLPSPIERTISKIKGLVRAPQVYILPPPAEQLSRKDVSLTCLVVGFNPGDISVEWTSNGHTEENYKDTAPVLDSDGSYFIYSKLDIKTSKWEKTDSFSCNVRHEGLKNYYLKKTISRSPGK
light: not shown
notes: Full-length mouse IgG2b; Biotinylated when used as capture antibody in Elecsys assays; also called M-3.2.52; clone 3.2.52
